According to EP2848693A1, “Concatenation of halogenated alkenyl diphosphate derivatives” (LANXESS Deutschland GmbH, priority 2013, dated 2015):

Key:
[1] = target: T1, E. coli Undecaprenyldiphosphatsynthase (EcUPPS) (Escherichia coli, UniProt P60472); test: MTP phosphate detection assay (diphosphate release, BIOMOL Green), substrate kinetics; type: biochemical; details: for rel. kcat Km^-1: relative to natural substrate FPP (100 %)
T1 construct: made in house; host or cells: E. coli
T1 sequence (P60472 1-253): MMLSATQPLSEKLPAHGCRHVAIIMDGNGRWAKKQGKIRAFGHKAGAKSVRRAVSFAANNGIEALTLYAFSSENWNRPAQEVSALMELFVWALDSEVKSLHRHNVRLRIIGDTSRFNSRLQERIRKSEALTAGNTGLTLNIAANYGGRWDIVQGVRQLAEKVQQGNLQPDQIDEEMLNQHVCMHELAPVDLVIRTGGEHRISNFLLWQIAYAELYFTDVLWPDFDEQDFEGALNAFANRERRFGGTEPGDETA
Experimental: (§1) Cis-Prenyltransferasen entlassen während der Reaktion Diphosphat nach jedem Kondensationsschritt. Dies ist der Ansatzpunkt, der gewählt wurde, um unabhängig von der Art des Produktes den Grundumsatz zu detektieren. […] Die Dreifachbestimmungen der Enzymreaktionen wurden mit 100 µL BIOMOL Green™ Detektionsreagenz gestoppt und nach weiteren 20 min in einem Mikrotiterplattenspektrophotometer bei 620 nm gemessen. Zur Kontrolle erfolgte für jede Substratkonzentration eine Messung mit denaturiertem Enzym zu den unterschiedlichen Zeitpunkten um Selbsthydrolyse der Substrate zu berücksichtigen. Zur Quantifizierung wurde eine Pi-Standardkurve in Doppelbestimmung mitgeführt. Die Verdünnung des KPi-Standards erfolgte in Assaypuffer, wurde mit 100 µL BIOMOL Green™ Detektionsreagenz nach Ablauf der Enzymreaktion in den Test-Wells detektiert und zeitgleich nach weiteren 20 min bei 620 nm gemessen. Eine lineare Beziehung zwischen A620 nm und Pi-Konzentration ermöglichte eine Quantifizierung zwischen 80 µM-0 µM Pi.
(§2) Die Bestimmung der FPP-Kinetiken der EcUPPS sowie der ThkCPT erfolgte unter analogen Bedingungen der Bestimmung von IPP. […] Die Enzymreaktion wurde nach 60 s, 120 s, 180 s, 300 s, 600 s, 900 s oder 1200 s durch Zugabe von 100 µL BIOMOL Green™ Detektionsreagenz gestoppt und wie oben beschrieben gemessen.
(§3) Die Assaybedingungen wurden wie in Beispiel 3 beschriebenen gewählt. […] Variation von 500 - 0 µM im Fall der Elongationssubstrate erfolgte konstant mit 10 µM FPP (jedes Homoallyldiphosphat möglich).
(§4) Zur Berechnung der Umsatzraten in nkat·mg^-1 wurde verwendet: ν0 = ((A620-ABlank)⋅1000)/(2⋅m⋅t⋅[E]) [formula] v0 Anfangsgeschwindigkeit der Diphosphathydrolyse (nkat·mg^-1) A620 Absorption bei 620 nm ABlank Absorption der Kontrolle bei 620 nm m Anstieg der Phosphatstandardkurve (µM^-1) t Dauer der Enzymreaktion (s) [E] Enzymkonzentration (mg·L^-1)
(§5) Die Auswertung erfolgte durch nicht-lineare Regression nach der Hill-Gleichung mit Sigma-Plot 11. […] Substratkonzentration (µM) h Hill-Koeffizient

[2] = target: T2, Thermococcus kodakaraensis cis-Prenyltransferase (ThkCPT) (Thermococcus kodakarensis, UniProt Q5JGE1); test: as above; type: biochemical; details: elongation substrate varied, starter FPP 10 µM, room temperature
T2 construct: made in house; host or cells: E. coli
T2 sequence (Q5JGE1 1-264): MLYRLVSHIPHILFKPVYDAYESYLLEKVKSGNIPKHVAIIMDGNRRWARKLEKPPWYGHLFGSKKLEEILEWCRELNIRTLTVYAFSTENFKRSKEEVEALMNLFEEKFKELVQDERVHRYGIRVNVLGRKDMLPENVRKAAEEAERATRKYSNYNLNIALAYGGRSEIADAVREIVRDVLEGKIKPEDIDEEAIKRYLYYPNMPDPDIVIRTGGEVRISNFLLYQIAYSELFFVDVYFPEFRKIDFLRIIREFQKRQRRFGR
Experimental: as §1, §2, §3, §4, §5

[3] = target: T3, ThkCPT (Thermococcus kodakarensis, UniProt Q5JGE1); test: Product chain length by HPLC with fluorescent starter substrate 110; type: biochemical, Thermococcus kodakaraensis
T3 construct: made in house; host or cells: E. coli
T3 sequence (Q5JGE1 1-264): T2 sequence (Q5JGE1 1-264)
Experimental: (§6) Zur Bestimmung der Produktkettenlängen wurden 500 µL Enzymassays in MS-Gläschen durchgeführt. […] Die Extraktion der Polyprenyldiphosphate erfolgte mit 500 µL 1-Butanol. Die Butanolphase wurde in ein neues Glas überführt und unter Stickstoffstrom von dem Lösungsmittel befreit. Die Hydrolyse der Diphosphate zum Polyprenol erfolgte durch Zugabe von 200 µL Hydrolysepuffer (20% Isopropanol, 4,4 Units/mL saure Phophatase aus Kartoffeln, 0,1 % Triton X-100, 50 mM Natriumacetat (pH 4,7)) und wurde über Nacht bei 37 °C inkubiert. Die Polyprenole wurden mit 500 µL nHexan extrahiert und zur weiteren DC- oder HPLC-Analyse vorbereitet. Für DC-Experimente und LC/ESI-MS-Analysen wurde die nHexan-Phase in ein neues Glas überführt, das Lösungsmittel abgedampft und die Produkte erneut in 100 µL nHexan resuspendiert um eine Aufkonzentrierung zu erreichen. Für HPLC-Analysen mit 110 ((2E,6E)-8-O-(N-methyl-2-aminobenzoyl)-3,7-dimethyl-2,6-octandien-1-diphosphat) als Startersubstrat wurde die nHexan-Phase 1:3 verdünnt in das HPLC-System mittels Autosampler injiziert.
Die HPLC-Analyse der Polyprenole erfolgte an einer Anlage von Merck HITACHI D-7000, wobei als stationäre Phase eine YMC-ODS AQ (150 x 4 mm, 5 µm; YMC Europe GmbH, Dinslaken) Säule verwendet wurde. Die Elution erfolgte mit 1 mL·min^-1 und die Detektion bei 210 nm mit einem UV-VIS Detektor: Merck HITACHI L-7420. Das Injektionsvolumen betrug dabei 5 µL. Die mobile Phase setzte sich aus Laufmittel A (MeOH/H2O/Isopropanol 12:1:8 (v/v/v)) und Laufmittel B (nHexan/Isopropanol 7:3 (v/v)) zusammen. Die Probenaufgabe erfolgte mittels Autosampler (Merck HITACHI L-7250). [drawing 35]
Zur selektiven und vor allem sensitiven Detektion von Polyprenolen kann ein alternatives, fluoreszierendes Startersubstrat verwendet werden, (2E,6E)-8-O-(N-methyl-2-aminobenzoyl)-3,7-dimethyl-2,6-octandien-1-diphosphat (110). Die Analyse erfolgte wie in Beispiel 6 beschrieben. Dabei wurden 3 µL pro Probe injiziert und die Detektion erfolgte über Fluoreszenz: Ex 352 nm / Em 420 nm wobei das Gerät Merck HITACHI L-7480 als Fluoreszenzdetektor verwendet wurde. […]

[4] = target: T4, EcUPPS (Escherichia coli, UniProt P60472); test: as above; type: biochemical; details: 10 µM EcUPPS, 110 as starter substrate, HPLC of hydrolysed products
T4 construct: made in house; host or cells: E. coli
Experimental: as §6
Die HPLC-Analyse der Polyprenole erfolgte an einer Anlage von Merck HITACHI D-7000, wobei als stationäre Phase eine YMC-ODS AQ (150 x 4 mm, 5 µm; YMC Europe GmbH, Dinslaken) Säule verwendet wurde. Die Elution erfolgte mit 1 mL·min^-1 und die Detektion bei 210 nm mit einem UV-VIS Detektor: Merck HITACHI L-7420. […]

[5] = substrate: C=C(Cl)CCOP(=O)(O)OP(=O)(O)O; test: MTP phosphate detection assay (diphosphate release, BIOMOL Green), substrate kinetics; type: biochemical, Escherichia coli; details: other: elongation substrate varied 500 - 0 µM, starter FPP constant 10 µM; 22.0 °C
Experimental: as §1, §2, §3, §4, §5

[6] = substrate: CC(C)=CCC/C(C)=C/CC/C(C)=C/CC/C(C)=C/COP(=O)(O)OP(=O)(O)O; test: as above; type: biochemical, Escherichia coli; details: other: starter substrate varied 80 - 0 µM, elongation substrate IPP constant 150 µM, 22°C
Experimental: as §1, §2, §3, §4, §5

[7] = substrate: CNc1ccccc1C(=O)OC/C(C)=C/CC/C(C)=C/COP(=O)(O)OP(=O)(O)O; test: as above; type: biochemical, Escherichia coli; details: other: starter substrate varied 80 - 0 µM, elongation substrate IPP constant 150 µM, 22°C
Experimental: as §1, §2, §3, §4, §5

[8] = substrate: C=C(C)CCO[P@@](=O)(O)OP(=O)(O)O; test: as above; type: biochemical, Escherichia coli; details: other: elongation substrate varied 500 - 0 µM, starter FPP constant 10 µM; 22.0 °C
Experimental: as §1, §2, §3, §4, §5

[9] = substrate: CC(C)=CCC/C(C)=C/COP(=O)(O)OP(=O)(O)O; test: as above; type: biochemical, Escherichia coli; details: other: starter substrate varied 80 - 0 µM, elongation substrate IPP constant 150 µM, 22°C
Experimental: as §1, §2, §3, §4, §5

[10] = substrate: C=C(Br)CCOP(=O)(O)OP(=O)(O)O; test: as above; type: biochemical, Escherichia coli; details: other: elongation substrate varied 500 - 0 µM, starter FPP constant 10 µM; 22.0 °C
Experimental: as §1, §2, §3, §4, §5

[11] = substrate: C=C(C)CCO[P@@](=O)(O)OP(=O)(O)O; test: purified protein, by the assay type; details: other: elongation substrate varied, starter FPP 10 µM, room temperature
[12] = substrate: C=C(Cl)CCOP(=O)(O)OP(=O)(O)O; test: MTP phosphate detection assay (diphosphate release, BIOMOL Green), substrate kinetics; type: biochemical, Thermococcus kodakaraensis; details: other: elongation substrate varied, starter FPP 10 µM, room temperature
Experimental: as §1, §2, §3, §4, §5

[13] = substrate: C=C(Br)CCOP(=O)(O)OP(=O)(O)O; test: as above; type: biochemical, Thermococcus kodakaraensis; details: other: elongation substrate varied, starter FPP 10 µM, room temperature
Experimental: as §1, §2, §3, §4, §5

[14] = starter substrate varied, IPP constant 150 µM

C=C(Br)CCOP(=O)(O)OP(=O)(O)O [Br-BPP, 3-Brom-3-Butenyldiphosphat]
kcat ([1]; elongation substrate varied, starter FPP 10 µM): 0,0004 s^-1 | kcat [2]: 0,0004 s^-1 | Kondensationen (Reaktionsprodukte) ([3]; 10 µM ThkCPT, 110 as starter substrate, room temperature 25°C): mehr als zwei Kondensationen | Kondensationsschritte / Elongationseinheiten [4]: 2

CNc1ccccc1C(=O)OC/C(C)=C/CC/C(C)=C/COP(=O)(O)OP(=O)(O)O [Substrat 110, (2E,6E)-8-O-(N-methyl-2-aminobenzoyl)-3,7-dimethyl-2,6-octandien-1-diphosphat]
rel. kcat Km^-1 [1]: 4% | Akzeptanz als Startersubstrat der ThkCPT ([3]; 65°C): als Startersubstrat akzeptiert

Farnesyldiphosphat [FPP]
rel. kcat Km^-1 [1]: 100% | Km ([1]; starter substrate varied 80 - 0 µM, elongation substrate IPP constant 150 µM, 22°C): 1.8 µM | kcat [1, 14]: 0,5 s^-1 | vmax [1, 14]: 17,9 ± 0,4 nkat/mg

CC(C)=CCC/C(C)=C/CC/C(C)=C\COP(=O)(O)OP(=O)(O)O [Z,E-FPP]
rel. kcat Km^-1 [1]: 90%

CC(C)=CCC/C(C)=C/CC/C(C)=C/CC/C(C)=C/COP(=O)(O)OP(=O)(O)O [GGPP, Geranylgeranyldiphosphat]
rel. kcat Km^-1 [1]: 76%

B1: E. coli Undecaprenyldiphosphatsynthase (EcUPPS) (Escherichia coli K-12) (protein)
chain: T1 sequence (P60472 1-253)
notes: made in house; host or cells: E. coli
Km [5]: 3.8 µM | Vmax [5]: 0,03 nkat mg^-1 | Km [6]: 1.9 µM | Vmax [6]: 14,9 ± 0,3 nkat/mg | kcat [6]: 0,4 s^-1 | kcat/Km [6]: 223000 M⁻¹ s⁻¹ | Km [7]: 5.6 µM | Vmax [7]: 1,9 ± 0,1 nkat/mg | kcat [7]: 0,1 s^-1 | kcat/Km [7]: 11000 M⁻¹ s⁻¹ | Km [8]: 6.5 µM | Vmax [8]: 14,4 nkat mg^-1 | kcat [8]: 0,4 s^-1 | Km [9]: 48,8 ± 8,3 µM | Vmax [9]: 11,3 ± 0,7 nkat/mg | kcat [9]: 0,3 s^-1 | kcat/Km [9]: 7000 M⁻¹ s⁻¹ | Km [10]: 6.4 µM | Vmax [10]: 0,02 nkat mg^-1

B2: Thermococcus kodakaraensis cis-Prenyltransferase (ThkCPT) (Thermococcus kodakarensis KOD1) (protein)
chain: T2 sequence (Q5JGE1 1-264)
notes: as for B1
Km [11]: 14.8 µM | Vmax [11]: 2,0 nKat mg^-1 | kcat [11]: 0,07 s^-1 | Km [12]: 21,2+/-2,1 µM | Vmax [12]: 0,01 nKat mg^-1 | Km [13]: 54,0 +/- 11,1 µM | Vmax [13]: 0,01 nKat mg^-1
